Test results from article PMC11187563, “The importance of tyrosines in multimers of cyclic RGD nonapeptides: towards αvβ6-integrin targeted radiotherapeutics” (RSC Medicinal Chemistry, 2024).
Where two headings read alike, the source gives them in different places.

How the values were obtained:
[1] = Ex vivo biodistribution of 177Lu-labeled peptide tetramers in H2009 xenografted SCID mice; conditions: CB17 SCID, mouse, iv, total radioactivity, H2009 bearing SCID mice; for tissue uptake at 72 h / tissue to tissue ratio at 72 h: 42 pmol, 3 d p.i.; for tissue uptake at 1.5 h / tissue to tissue ratio at 1.5 h: 139 pmol, 90 min p.i.
Experimental: (§1) The biodistribution of the ^177Lu-labeled peptide conjugates was investigated in severe combined immunodeficiency (SCID) mice bearing subcutaneous xenografts of the αvβ6-integrin expressing human lung adenocarcinoma cell line H2009 on their right shoulders. Two representative time points after i.v. administration (p.i.) were evaluated.
(§2) Analytical HPLC was performed on a Shimadzu (Kyoto, Japan) Prominence HPLC system equipped with either a Dr. Maisch ReproSil Pur C18 AQ 150 × 4.6 mm, 5 μm, 120 Å (AC1) or a Phenomenex Kinetex C18 150 × 4.6 mm 5 μm column (AC2). Semipreparative HPLC was performed on a Shimadzu HPLC system equipped with either a Dr. Maisch ReproSil Pur C18 AQ 250 × 10 mm, 5 μm, 120 Å column with 5 mL min^−1 flow (PC1) or a Dr. Maisch ReproSil Pur C18 150 × 30 mm, 5 μm, 120 Å column with 20 mL min^−1 flow (PC2). Solvents for both systems were water (A) and acetonitrile (B) each supplemented with 0.1% (vol) trifluoroacetic acid (TFA). ESI-MS spectra (positive mode) were recorded on a Shimadzu LC-MS 2020 single quadrupol mass spectrometer. Solvents for MS applications were water (A) and acetonitrile (B) each supplemented with 0.1% (vol) formic acid. The other experimental procedures (determination of log D7.4, cultivation of H2009 human lung adenocarcinoma cells, generation of tumor xenografts in CB17 SCID mice, and biodistribution) were performed as described before.[28] All animal experiments have been carried out according to applicable law and institutional guidelines of Technical University of Munich, and were approved by the responsible local authority (Regierung von Oberbayern). The H2009 cells were regularly authenticated and tested for mycoplasma contamination. DOTPI-tetraazide,[43]FF (previously termed AvB6),[29]FY,[34] and YY (also referred to as Tyr2-alkyne)[36] were synthesized as described previously.

[2] = test system: αvβ6-integrin expressing human lung adenocarcinoma cell line H2009 xenografts; test: as above; conditions: H2009 bearing SCID mice
Experimental: as §1, §2

[3] = H2009 tumor, read-out: Tumor H2009 %IA/g
[4] = adrenals, read-out: Adrenals %IA/g
[5] = heart (myocard), read-out: Heart (myocard) %IA/g
[6] = kidneys, read-out: Kidneys %IA/g
[7] = large intestine (empty), read-out: Large intestine (empty) %IA/g
[8] = pancreas, read-out: Pancreas %IA/g
[9] = small intestine (empty), read-out: Small intestine (empty) %IA/g
[10] = stomach (empty), read-out: Stomach (empty) %IA/g
[11] = tumor/blood, read-out: tumor/organ ratio, Blood
[12] = tumor/heart (myocard), read-out: tumor/organ ratio, Heart (myocard)
[13] = tumor/liver, read-out: tumor/organ ratio, Liver
[14] = tumor/lung, read-out: tumor/organ ratio, Lung
[15] = tumor/pancreas, read-out: tumor/organ ratio, Pancreas
[16] = tumor/spleen, read-out: tumor/organ ratio, Spleen

Work on `CC(C)C[C@@H]1NC(=O)[C@H](CC(=O)O)NC(=O)CNC(=O)[C@H](CCCNC(=N)N)NC(=O)[C@H](Cc2ccccc2)NC(=O)[C@H](CCCCNC(=O)CCc2cn(CCCNC(=O)CCP(=O)(O)CN3CCN(CP(=O)(O)CCC(=O)NCCCn4cc(CCC(=O)NCCCC[C@H]5C(=O)N[C@@H](Cc6ccccc6)C(=O)N[C@@H](CCCNC(=N)N)C(=O)NCC(=O)N[C@@H](CC(=O)O)C(=O)N[C@@H](CC(C)C)C(=O)N[C@@H](C)C(=O)N[C@@H](Cc6ccc(O)cc6)C(=O)N6CCC[C@@H]6C(=O)N5C)nn4)CCN(CP(=O)(O)CCC(=O)NCCCn4cc(CCC(=O)NCCCC[C@H]5C(=O)N[C@@H](Cc6ccccc6)C(=O)N[C@@H](CCCNC(=N)N)C(=O)NCC(=O)N[C@@H](CC(=O)O)C(=O)N[C@@H](CC(C)C)C(=O)N[C@@H](C)C(=O)N[C@@H](Cc6ccc(O)cc6)C(=O)N6CCC[C@@H]6C(=O)N5C)nn4)CCN(CP(=O)(O)CCC(=O)NCCCn4cc(CCC(=O)NCCCC[C@H]5C(=O)N[C@@H](Cc6ccccc6)C(=O)N[C@@H](CCCNC(=N)N)C(=O)NCC(=O)N[C@@H](CC(=O)O)C(=O)N[C@@H](CC(C)C)C(=O)N[C@@H](C)C(=O)N[C@@H](Cc6ccc(O)cc6)C(=O)N6CCC[C@@H]6C(=O)N5C)nn4)CC3)nn2)N(C)C(=O)[C@H]2CCCN2C(=O)[C@H](Cc2ccccc2)NC(=O)[C@H](C)NC1=O` [Compound 177Lu-Y3, metal not drawn] yielded a tissue uptake at 72 h [1, 3] of 2.03 %ID/g, a tissue uptake at 1.5 h [1, 3] of 3.7 %ID/g and a tissue uptake at 72 h [1, 4] of 0.27 %ID/g. For the same compound, the tissue uptake at 1.5 h [1, 4] was 1.04 %ID/g, the tissue uptake at 72 h ([1]; blood, read-out: Blood %IA/g) was 0.02 %ID/g and the tissue uptake at 1.5 h ([1]; blood, read-out: Blood %IA/g) was 1.11 %ID/g. For the same compound, the tissue uptake at 72 h ([1]; bone, read-out: Bone %IA/g) was 0.35 %ID/g, the tissue uptake at 1.5 h ([1]; bone, read-out: Bone %IA/g) was 1.51 %ID/g and the tissue uptake at 72 h [1, 5] was 0.22 %ID/g. The tissue uptake at 1.5 h [1, 5] was 0.65 %ID/g, the tissue uptake at 72 h [1, 6] was 250 %ID/g and the tissue uptake at 1.5 h [1, 6] was 141 %ID/g. It also gave a tissue uptake at 72 h [1, 7] of 1.34 %ID/g, a tissue uptake at 1.5 h [1, 7] of 3.43 %ID/g and a tissue uptake at 72 h ([1]; liver, read-out: Liver %IA/g) of 1.17 %ID/g. The tissue uptake at 1.5 h ([1]; liver, read-out: Liver %IA/g) was 7.59 %ID/g, the tissue uptake at 72 h ([1]; lung, read-out: Lung %IA/g) was 1.22 %ID/g and the tissue uptake at 1.5 h ([1]; lung, read-out: Lung %IA/g) was 4.91 %ID/g. It also gave a tissue uptake at 72 h ([1]; muscle, read-out: Muscle %IA/g) of 0.47 %ID/g, a tissue uptake at 1.5 h ([1]; muscle, read-out: Muscle %IA/g) of 0.57 %ID/g and a tissue uptake at 72 h [1, 8] of 0.25 %ID/g. It also gave a tissue uptake at 1.5 h [1, 8] of 0.36 %ID/g, a tissue uptake at 72 h [1, 9] of 0.37 %ID/g and a tissue uptake at 1.5 h [1, 9] of 2.49 %ID/g. It also gave a tissue uptake at 72 h ([1]; spleen, read-out: Spleen %IA/g) of 1.36 %ID/g, a tissue uptake at 1.5 h ([1]; spleen, read-out: Spleen %IA/g) of 8.5 %ID/g and a tissue uptake at 72 h [1, 10] of 4.76 %ID/g. It also gave a tissue uptake at 1.5 h [1, 10] of 7.42 %ID/g, a tissue to tissue ratio at 72 h ([1]; tumor / adrenals, read-out: tumor/organ ratio, Adrenals) of 8.4 and a tissue to tissue ratio at 72 h ([1]; tumor / bone, read-out: tumor/organ ratio, Bone) of 6.6. The tissue to tissue ratio at 72 h ([1]; tumor / large intestine (empty), read-out: tumor/organ ratio, Large intestine (empty)) was 2.3, the tissue to tissue ratio at 72 h ([1]; tumor / muscle, read-out: tumor/organ ratio, Muscle) was 5.3 and the tissue to tissue ratio at 72 h ([1]; tumor / small intestine (empty), read-out: tumor/organ ratio, Small intestine (empty)) was 6.6. It also gave a tissue to tissue ratio at 72 h ([1]; tumor / stomach (empty), read-out: tumor/organ ratio, Stomach (empty)) of 0.5, a tissue to tissue ratio at 1.5 h ([1]; tumor/adrenals, read-out: tumor/organ ratio, Adrenals) of 3.9 and a tissue to tissue ratio at 72 h [1, 11] of 129. The tissue to tissue ratio at 1.5 h [1, 11] was 3.4, the tissue to tissue ratio at 1.5 h ([1]; tumor/bone, read-out: tumor/organ ratio, Bone) was 2.5 and the tissue to tissue ratio at 72 h [1, 12] was 9.4. It also gave a tissue to tissue ratio at 1.5 h [1, 12] of 5.8, a tissue to tissue ratio at 1.5 h ([1]; tumor/large intestine (empty), read-out: tumor/organ ratio, Large intestine (empty)) of 1.1 and a tissue to tissue ratio at 72 h [1, 13] of 1.9. It also gave a tissue to tissue ratio at 1.5 h [1, 13] of 0.6, a tissue to tissue ratio at 72 h [1, 14] of 1.7 and a tissue to tissue ratio at 1.5 h [1, 14] of 0.8. It also gave a tissue to tissue ratio at 1.5 h ([1]; tumor/muscle, read-out: tumor/organ ratio, Muscle) of 6.6, a tissue to tissue ratio at 72 h [1, 15] of 10.6 and a tissue to tissue ratio at 1.5 h [1, 15] of 10.3. It also gave a tissue to tissue ratio at 1.5 h ([1]; tumor/small intestine (empty), read-out: tumor/organ ratio, Small intestine (empty)) of 1.5, a tissue to tissue ratio at 72 h [1, 16] of 1.7 and a tissue to tissue ratio at 1.5 h [1, 16] of 0.5. For the same compound, the tissue to tissue ratio at 1.5 h ([1]; tumor/stomach (empty), read-out: tumor/organ ratio, Stomach (empty)) was 0.5, the “tumor/organ ratio, Kidneys” value ([2]; 90 min p.i.) was 0.0 and the “tumor/organ ratio, Kidneys” value ([2]; 3 d p.i.) was 0.0.
